Patent US5866114A, “Crystallization of M-CSFα” (Chiron Corporation, priority 1995, dated 1999)
Changes are numbered by the printed parent chain. Numbers in names are those of the source.

Legend:
[1] = test system: NFS-60 cells; assay: M-CSF dependent NFS-60 bioassay (MTT readout, compared to M-CSF standard); format: cell-based
Method: Fractionated products were analyzed on reducing SDS-PAGE and stained with Coomassie, according to the method of Laemmli, Nature […] 227:680-685 (1970). Biological activity was determined using the M-CSF dependent NFS-60 bioassay (See Example 10 below). Antibody neutralization experiments were carried out by pre-incubating approximately 5,000 units of M-CSF dimer with varying dilutions of the neutralizing M-CSF 5H410 Mab (made to refolded E. coli CΔ150 M-CSFα dimer) prior to bioassay. (Halenbeck et al, Bio/Technology 7:710 (1989)
The purified mutein dimers were subjected to bioassay using NFS-60 cells which is an M-CSF dependent cell line which forms colonies in the presence of active M-CSF. Standards and purified mutein samples were serially diluted 1:2 in RPMI media (10% fetal bovine serum) in a 50 microliter volume in 96-well microtiter plates. 50 microliters NFS-60 cells (ATCC NO. CRL 1838), maintained in 4000U/ml M-CSF, washed 2×, and diluted to a concentration of 1×10^5 cell/ml, were added to each sample well. Plates were incubated at 37° C., 5% CO2 for 44 h. 5 mg/ml MTT dye was added to each sample and incubation continued for 4 h. 20% SDS was added to each sample. The plates were wrapped in foil and left overnight. The absorbance of each sample was read at 570 nm and compared to a standard of known M-CSF concentration.

[2] = Bioactivity after diethylpyrocarbonate (DEPC) modification of histidines; conditions: 1:100 DEPC:histidine ratio
[3] = test system: cell surface M-CSF receptor (NFS60 cell M-CSF receptors); assay: Radioligand displacement of 125I-M-CSF from NFS-60 cell M-CSF receptors (NFS-60 receptor competition assay); format: binding; conditions: for IC50: 4° C., 20 hours, 300,000 NFS-60 cells, read-out: IC50 (concentration required to inhibit 50% of labeled M-CSF binding to the cells); for M-CSF receptor-binding ability: compared to parental M-CSFα; for fold decrease in binding affinity: relative to M-CSFα NΔ3CΔ158
Method: FIG. 7 illustrates the competitive binding of M-CSF and M-CSF muteins to NFS60 cell M-CSF receptors.
The purified heterodimer was submitted to the NFS60 cell based bioassay described in Example 8. The calculated specific activity was 2.9×10^6 U/mg which correlated to a 35-fold reduction as compared to the activity of the parental M-CSF heterodimer described in Example 10. The relative binding affinity to cell surface M-CSF receptor was measured by radioligand displacement in which the displacement of ^125 I-M-CSF from an M-CSF receptor by an M-CSF mutein was measured using methods well known in the art. In brief, the following were added in a final volume of 100 μl in each well of a 96-well cell culture plate: approximately 80,000 cpm of purified recombinant human M-CSF labeled with ^125 I (using Iodobeads as described by the manufacturer, Pierce, Rockford, Ill.), 300,000 NFS-60 cells that had been washed and then grown for 18 hours in growth medium minus the normal maintenance level of M-CSF, plus unlabeled M-CSF that had been serially diluted in the same medium. The plates were incubated at 4° C. for 20 hours and the cells were collected on glass-fiber filters. Maximum binding was measured in the absence of unlabeled M-CSF and non-specific binding was measured in the presence of 1000-fold greater concentration of unlabeled M-CSF (compared to labeled M-CSF). The concentration of M-CSF required to inhibit 50% of the labeled M-CSF binding to the cells (IC50) was used to determine differences in affinity. Results are expressed as percent displacement of radioactive M-CSF versus mutein concentration (FIG. 7).

B1: 158/221F heterodimer: one chain of short clone (amino acid 4 to 158) and one chain of long clone 221F (protein, UniProt P09603 33-554, looked up, variant C157S C159S)
Macrophage colony-stimulating …: EEVSEYCSHMIGSGHLQSLQRLIDSQMETSCQITFEFVDQEQLKDPVCYLKKAFLLVQDIMEDTMRFRDNTPNAIAIVQLQELSLRLKSCFTKDYEEHDKACVRTFYETPLQLLEKVKNVFNETKNLLDKDWNIFSKNCNNSFAECSSQDVVTKPDSNSLYPKAIPSSDPASVSPHQPLAPSMAPVAGLTWEDSEGTEGSSLLPGEQPLHTVDPGSAKQRPPRSTCQSFEPPETPVVKDSTIGGSPQPRPSVGAFNPGMEDILDSAMGTNWVPEEASGEASEIPVPQGTELSPSRPGGGSMQTEPARPSNFLSASSPLPASAKGQQPADVTGTALPRVGPVRPTGQDWNHTPQKTDHPSALLRDPPEPGSPRISSLRPQGLSNPSTLSAQPQLSRSHSSGSVLPLGELEGRRSTRDRRSPAEPEGGPASEGAARPLPRFNSVPLTDTGHERQSEGSFSPQLQESVFHLLVPSVILVLLAVGGLLFYRWRRRSHQEPQRADSPLEQPEGSPLTQDDRQVELPV
modifications: heterodimer short/long clone
notes: one chain of short clone (amino acid 4 to 158) and one chain of long clone 221F
[1]; calculated using the peak fraction of preparative Phenyl-HPLC
  specific activity: 8.0×10^7 units/mg
[1]; refolded dimers, SE-HPLC (72 hr of refolding) or Phenyl-HPLC fractions
  biological activity of heterodimer compared to the two homodimers: fully biologically active in vitro

B2: M-CSF: macrophage colony stimulating factor, form not specified, treated with DEPC to modify histidines (protein, UniProt P09603 33-554, looked up)
Macrophage colony-stimulating …: B1 Macrophage colony-stimulating … with S157C, S159C
modifications: DEPC-modified histidines
[2]
  bioactivity after DEPC modification of histidines: significantly reduced bioactivity

B3: M-CSFαNΔ3CΔ158 H9A, H15A/M-CSFβNΔ3CΔ221C157S, C159S heterodimer: one subunit of M-CSFα NΔ3CΔ158 H9A, H15A and one subunit of M-CSFβ NΔ3CΔ221 C157S, C159S (protein, UniProt P09603 33-554, looked up, variant H9A H15A C157S C159S)
Macrophage colony-stimulating …: B1 Macrophage colony-stimulating … with H9A, H15A
modifications: heterodimer of truncated α and β forms
[1]; Example 12
  fold reduction in specific activity compared to parental M-CSF heterodimer: 35 fold
[1]; Example 12, purified heterodimer
  calculated specific activity: 2.9×10^6 U/mg
[3]
  fold increase of IC50 compared to M-CSFα NΔ3CΔ158: 30 fold
  IC50: ~0.5 nM

B4: Q20A, V78K: double mutant of M-CSF, solvent accessible residues in central portion of helices A and C (protein, UniProt P09603 33-554, looked up, variant Q20A V78K)
Macrophage colony-stimulating …: B1 Macrophage colony-stimulating … with Q20A, V78K, S157C, S159C
[1]; Example 11
  fold lower specific biological activity than parental M-CSFα reference standard: 8-10 fold
  specific biological activity: 1.4×10^7 U/mg
[3]
  IC50: ~0.1 nM
  M-CSF receptor-binding ability: decreased
  fold decrease in binding affinity: 5 fold

B5: H9A, H15A: M-CSF NΔ3CΔ158 with His 9 and His 15 mutated to Ala, refolded dimer (pTAF172-2) (protein, UniProt P09603 33-554, looked up, variant H9A H15A)
Macrophage colony-stimulating …: B1 Macrophage colony-stimulating … with H9A, H15A, S157C, S159C
modifications: residues 4-158, dimer
[1]; Example 10
  fold reduction in biological activity versus parental M-CSF NΔ3CΔ158: ~10,000 fold
[1]; Example 10, purified refolded mutein dimers, same assay as parental reference
  specific activity: 7.6×10^3 U/mg
[3]
  IC50: ~1000 nM
  M-CSF receptor-binding ability: greatly decreased
  fold decrease in binding affinity: 50,000 fold
